Series [1] deals with TIRR (6-211)-His (UniProt Q9BRJ7 6-211). As to the kind of experiment: SPR; SPR: 20 mM HEPES pH 6, 300 mM NaCl, 0.05% P20, 25 C; EMSA: 50 mM HEPES, 50 mM NaCl, 5% glycerol, 20 mM MgCl2, 0.01% Tween 20, 37 C 15 min, 10 nM probe. To be noted: protein: recombinant, tags: His.
The target of series [2] is 53BP1-Tudor (Homo sapiens, UniProt Q12888 1484-1603). As to the kind of experiment: EMSA; 20 mM Mg2+; SPR: 20 mM HEPES pH 6, 300 mM NaCl, 0.05% P20, 25 C; EMSA: 50 mM HEPES, 50 mM NaCl, 5% glycerol, 20 mM MgCl2, 0.01% Tween 20, 37 C 15 min, 10 nM probe. As to conditions: protein: commercial; label: 32P 5' in EMSA; hairpin.
Sequence of 53BP1-Tudor (Q12888 1484-1603): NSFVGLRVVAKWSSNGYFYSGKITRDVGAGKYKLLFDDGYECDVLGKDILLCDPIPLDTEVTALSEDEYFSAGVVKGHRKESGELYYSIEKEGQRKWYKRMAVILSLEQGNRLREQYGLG

Sequence of TIRR (6-211)-His (Q9BRJ7 6-211): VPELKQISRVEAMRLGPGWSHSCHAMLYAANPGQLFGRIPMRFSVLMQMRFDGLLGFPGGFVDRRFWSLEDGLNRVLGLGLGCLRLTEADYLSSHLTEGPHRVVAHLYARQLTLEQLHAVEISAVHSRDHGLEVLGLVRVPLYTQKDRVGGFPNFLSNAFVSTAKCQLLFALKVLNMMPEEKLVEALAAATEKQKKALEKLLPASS

B1: dsRNA (dsRNA)
RNA 1: GGACAAGAUGCCUUAUGUGG
RNA 2: CCACAUAAGGCAUCUUGUCC
For the molecule B1, the dissociation constant (Kd) in series [1] (blunt) is ~200 µM.
CGCUCCCAAAAAAAAAAACCGAGCG (structured_RNA) [RNA beacon]: the binding result in series [2] was “no binding”. Further, the Kd in series [1] (label: 32P 5' in EMSA, hairpin) is ~100 µM.
Take GGACAAGAUGCCUUAUGUGGACUUCACCACAUAAGGCAUCUUGUCC (structured_RNA) [RNA hairpin]: in series [1] (hairpin), the Kd was ~100 µM.

(Values after publication PMC9638026, “DNA double-strand break-derived RNA drives TIRR/53BP1 complex dissociation”.)
